From article PMC5440646, “T Cell Costimulation by CD6 Is Dependent on Bivalent Binding of a GADS/SLP-76 Complex” (Molecular and Cellular Biology, 2017)
Like-named read-outs stand apart in the source and are kept apart here.

Key:
GADS = GADS (UniProt O75791); assay: CD6 MAb immunoprecipitation, Western blot; conditions: reference: wild-type CD6-EGFP; sites Y629
SLP-76 = SLP-76 (UniProt Q13094); assay: CD6 MAb immunoprecipitation, Western blot; conditions: reference: wild-type CD6-EGFP; sites Y662
[1] = molecular target: long CD6 peptide phosphorylated at Y629 (human); assay: SPR; biotinylated long CD6 peptides immobilised at ~50 response units on streptavidin-coated CM5 chips, BIAcore 3000; SH2 domains injected at 10 μl/min at 37°C; equilibrium binding, 1:1 Langmuir
[2] = molecular target: long CD6 peptide phosphorylated at Y629 and Y662 (human); assay: as above
[3] = molecular target: SLP-76 proline-rich motif (Homo sapiens) (UniProt Q13094); conditions: cited from earlier work
[4] = molecular target: SLP-76 proline-rich motif (Homo sapiens) (UniProt Q13094); conditions: cited from earlier work; remark: listed apart in the source
[5] = molecular target: long CD6 peptide phosphorylated at Y662 (human); assay: SPR; biotinylated long CD6 peptides immobilised at ~50 response units on streptavidin-coated CM5 chips, BIAcore 3000; SH2 domains injected at 10 μl/min at 37°C; equilibrium binding, 1:1 Langmuir
long CD6 peptide phosphorylated at Y662 (human), sequence (P30203 622-668): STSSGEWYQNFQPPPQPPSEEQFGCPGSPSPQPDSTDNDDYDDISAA

long CD6 peptide phosphorylated at Y629 and Y662 (human), sequence (P30203 622-668): as above
long CD6 peptide phosphorylated at Y629 (human), sequence (P30203 622-668): as above
GADS C-terminal SH3, sequence (O75791 271-330): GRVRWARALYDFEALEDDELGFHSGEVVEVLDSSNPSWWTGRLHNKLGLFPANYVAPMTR
GRB2 C-terminal SH3, sequence (P62993 156-215): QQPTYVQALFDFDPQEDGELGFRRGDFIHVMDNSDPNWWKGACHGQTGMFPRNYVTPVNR

CD6 (from UniProt P30203) Y629F
binding against the reference (GADS): weaker

CD6 (from UniProt P30203) Y662F
binding against the reference (SLP-76): weaker

GADS SH2 domain, His-tagged (from UniProt O75791 58-149) (domain or fragment)
Kd [1]: 200 to 600 nM | Kd [2]: 100 to 2000 nM

GRB2 C-terminal SH3 (from UniProt P62993)
Kd [3]: 10000 nM

GADS C-terminal SH3 (from UniProt O75791)
Kd [4]: 200 nM

SLP-76 SH2 domain, His-tagged (from UniProt Q13094 422-530) (domain or fragment)
Kd [5]: 300 to 2000 nM | Kd [2]: 300 to 2000 nM
